Measured values as given in doi:10.1101/2024.04.04.584535, “Human Saposin B Ligand Binding and Presentation to α-Galactosidase A” (bioRxiv, 2024).

B3: α-galactosidase A D170A (catalytic nucleophile mutant) (enzyme, human)
chain: LDNGLARTPTMGWLHWERFMCNLDCQEEPDSCISEKLFMEMAELMVSEGWKDAGYEYLCIDDCWMAPQRDSEGRLQADPQRFPHGIRQLANYVHSKGLKLGIYADVGNKTCAGFPGSFGYYDIDAQTFADWGVDLLKFAGCYCDSLENLADGYKHMSLALNRTGRSIVYSCEWPLYMWPFQKPNYTEIRQYCNHWRNFADIDDSWKSIKSILDWTSFNQERIVDVAGPGGWNDPDMLVIGNFGLSWNQQVTQMALWAIMAAPLFMSNDLRHISPQAKALLQDKDVIAINQDPLGKQGYQLRQGDNFEVWERPLSGLAWAVAMINRQEIGGPRSYTIAVASLGKGVACNPACFITQLLPVKRKLGFYEWTSRLRSHINPTGTVLLQLENTMQMSLKDLL
notes: human α-galactosidase A (UniProt P06280), D170A mutant; Secreted into the Sf9 supernatant, so the signal peptide is probably removed (surmised); Glycosylated; Homodimer; also called GLA^D170A; GLA

Experiments:
[1] = molecular target: T1, SapB (saposin B; sphingolipid activator protein B) (Homo sapiens, UniProt P07602); test: NBD fluorescence equilibrium binding (pH […] days), weak; parameters: gene PSAP; mature saposin B, E. coli expressed
T1 sequence (P07602 195-273): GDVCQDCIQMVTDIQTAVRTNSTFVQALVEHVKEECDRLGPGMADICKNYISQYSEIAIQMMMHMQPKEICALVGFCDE

[2] = molecular target: T2, α-galactosidase A, wild type (human, UniProt P06280 32-429)
T2 sequence (looked up): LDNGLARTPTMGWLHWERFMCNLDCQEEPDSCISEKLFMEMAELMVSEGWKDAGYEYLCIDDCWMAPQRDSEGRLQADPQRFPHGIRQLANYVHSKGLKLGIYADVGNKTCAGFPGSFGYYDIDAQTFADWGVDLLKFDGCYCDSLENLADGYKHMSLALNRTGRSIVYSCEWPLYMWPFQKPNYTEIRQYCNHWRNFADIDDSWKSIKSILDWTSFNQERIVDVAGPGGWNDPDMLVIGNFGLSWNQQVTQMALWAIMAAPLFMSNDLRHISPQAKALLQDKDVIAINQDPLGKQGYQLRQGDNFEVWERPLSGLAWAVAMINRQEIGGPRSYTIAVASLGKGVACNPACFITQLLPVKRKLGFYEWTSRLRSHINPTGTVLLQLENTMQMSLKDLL

[3] = molecular target: Sphingolipid activator protein B (saposin B) (human) (UniProt P07602); test: crystal structure; SapB co-crystallised with Gb3-NBD at about molar equivalence; 3.25 M malonate pH 5, 20 °C; 2.68 Å
[4] = molecular target: Sphingolipid activator protein B (saposin B) (human) (UniProt P07602); test: cross-linking; BS3 cross-linker (0-1 mM), 10 μM GLA^D170A or GAA, 50-100 μM SapB (with 20% SapB^ANBD in some gels) or 100 μM SapD, 0-200 μM Gb3-NBD, PBS pH 6.5, one hour; Tricine-SDS-PAGE with One-Step Blue stain, in-gel NBD fluorescence and anti-GLA western blot; also at 10 μM SapB^ANBD, 1 μM GLA^D170A, 50 μM Gb3-NBD
SapD (saposin D) = molecular target: T3, SapD (saposin D) (Homo sapiens, UniProt P07602); test: NBD fluorescence equilibrium binding, acidic pH only
T3 construct: gene PSAP; mature saposin D, E. coli expressed
T3 sequence (P07602 405-486): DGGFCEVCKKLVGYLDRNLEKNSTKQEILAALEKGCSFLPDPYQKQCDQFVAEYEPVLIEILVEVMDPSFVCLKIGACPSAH

[5] = molecular target: T1, SapB (saposin B; sphingolipid activator protein B); test: NBD fluorescence equilibrium binding (pH […] h); also SEC co-migration and LC-MS of co-crystals; parameters: gene PSAP; mature saposin B, E. coli expressed (SapB dimer)
[6] = molecular target: B3; test: cross-linking; BS3 cross-linker (0-1 mM), 10 μM GLA^D170A or GAA, 50-100 μM SapB (with 20% SapB^ANBD in some gels) or 100 μM SapD, 0-200 μM Gb3-NBD, PBS pH 6.5, one hour; Tricine-SDS-PAGE with One-Step Blue stain, in-gel NBD fluorescence and anti-GLA western blot; also at 10 μM SapB^ANBD, 1 μM GLA^D170A, 50 μM Gb3-NBD; details: both partners purified
[7] = molecular target: T2, α-galactosidase A, wild type; test: cell-based or functional assay
purified protein = substrate: O=[N+]([O-])c1ccc(O[C@H]2O[C@H](CO)[C@H](O)[C@H](O)[C@H]2O)cc1; test: purified protein; assay type: biochemical, Homo sapiens
[8] = molecular target: the molecule itself; test: crystal structure; SapB preincubated with DDAO detergent (~1:47) at pH 5, mixed with GLA^D170A; crystals in 0.1 M Tris pH 8, 1 M ammonium sulfate, 20 °C; 3.53 Å

CCCCCCCCCCCCCCC[C@@H](O)[C@H](CO)NC(=O)CCCCCCCCCCCNc1ccc([N+](=O)[O-])c2nonc12 [Cer-NBD]
Kd [1]: > 95 µM

SapB^ANBD (SapB N21C labelled with IANBD amide) (natural protein)
galactose production from Gb3-NBD by GLA in an 18-hour enzyme-activator assay, relative to wild-type SapB [2]: 80%

Sphingolipid activator protein B (saposin B) (from UniProt P07602 195-273) (natural protein)
stoichiometry N [3]: 2
stoichiometry N [4]: 2

CCCCCCCCCCCCC/C=C/[C@@H](O)[C@H](CO[C@@H]1O[C@H](CO)[C@@H](O[C@@H]2O[C@H](CO)[C@H](O[C@H]3O[C@H](CO)[C@H](O)[C@H](O)[C@H]3O)[C@H](O)[C@H]2O)[C@H](O)[C@H]1O)NC(=O)CCCCCCCCCCCNc1ccc([N+](=O)[O-])c2nonc12 [Gb3-NBD]
Kd (SapD (saposin D)): 38 ± 2 µM
Kd [5]: 5.8 ± 0.5 µM

B1: Saposin D (natural protein, human, UniProt P07602 405-486, looked up)
chain: DGGFCEVCKKLVGYLDRNLEKNSTKQEILAALEKGCSFLPDPYQKQCDQFVAEYEPVLIEILVEVMDPSFVCLKIGACPSAH
notes: saposin D, the mature cut product of prosaposin (UniProt P07602); Tag printed as enterokinase-cleavable N-terminal His8-DDDDK-GAS; GAS probably left after cleavage (surmised); also called SapD; source: E. coli Shuffle T7 Express, purified (heat shock, Ni agarose, enterokinase cleavage, SEC); not shown: His8, N-terminal, cleaved
binding result [6]: binds
free galactose released from Gb3-NBD by wild-type GLA after 2.5 hours in acidic buffer (Amplex Red galactose assay); SapD at a tenfold molar excess to GLA [7]: ~5 µM

B2: α-galactosidase A (GLA) (Homo sapiens) (protein)
chain: LDNGLARTPTMGWLHWERFMCNLDCQEEPDSCISEKLFMEMAELMVSEGWKDAGYEYLCIDDCWMAPQRDSEGRLQADPQRFPHGIRQLANYVHSKGLKLGIYADVGNKTCAGFPGSFGYYDIDAQTFADWGVDLLKFDGCYCDSLENLADGYKHMSLALNRTGRSIVYSCEWPLYMWPFQKPNYTEIRQYCNHWRNFADIDDSWKSIKSILDWTSFNQERIVDVAGPGGWNDPDMLVIGNFGLSWNQQVTQMALWAIMAAPLFMSNDLRHISPQAKALLQDKDVIAINQDPLGKQGYQLRQGDNFEVWERPLSGLAWAVAMINRQEIGGPRSYTIAVASLGKGVACNPACFITQLLPVKRKLGFYEWTSRLRSHINPTGTVLLQLENTMQMSLKDLL
notes: wild-type human GLA, C-terminal 2x-FLAG, Sf9 expressed
Km (purified protein): 9.9 mM

B3
Km (purified protein): 7.4 mM
stoichiometry N [8]: 2
